The results in this text go back to patent US20050053990.

Holding throughout (experiment): cleavage_in_vitro
One data set deals with Cac8I. Conditions: DNA strand 100% cleaved; NEBuffer 3, 37 C, 4 h; Table 1 does not name the oligos.
Another data set has as its system SfaNI. Conditions: DNA strand 100% cleaved.
The test system of a further data set is BtsI. Conditions: DNA strand 100% cleaved.
The subject of a further data set is Sau3AI. The conditions noted are these: DNA strand 0% cleaved.
In another data set the test system is AvaII. The conditions noted are these: DNA strand 100% cleaved; NEBuffer 4 (Mg2+), 37 C, 4 h; Table 1 does not name the oligos.

For the substance “UAAAGGCGCGCCCGCAUGCUUUA / TAAAGCATGCGGGCGCGCCTTTA [I/L RNA/DNA duplex]”, the activity (% RNA strand cleaved) in the data set on Cac8I amounted to 100.

As for SfaNI site RNA/DNA duplex, the activity (% RNA strand cleaved) with SfaNI came out at 100.

Turning to BtsI site RNA/DNA duplex, in the data set with BtsI, the activity (% RNA strand cleaved) came to 70.

In turn, Sau3AI site RNA/DNA duplex yielded an activity (% RNA strand cleaved) in the data set with Sau3AI of 80.

Regarding “AAAGCUAAGCGGACCGAGUCGACUGCAUCGUCAUGAAAAAA / TTTTTTCATGACGATGCAGTCGACTCGGTCCGCTTAGCTTT [A/B RNA/DNA duplex]”, in the data set with AvaII, the activity (% RNA strand cleaved) came to 100.
